Experimental data from patent US20240043504A1.

Target: SARS-CoV-2 spike protein variant Y483A (Table 27), on VSV pseudoparticles (SARS-CoV-2) (UniProt P0DTC2)
Experiment: cell-based or functional assay

## mAb10987 (antibody)
  Relative neutralization (5 µg/ml, Vero cells): 99%
